Consider two proteins from PMC12172446, “Murine norovirus allosteric escape mutants mimic gut activation” (Journal of Virology, 2025).

Residue numbers refer to the chain shown, from its start. Numbers in names are those of the source.

The data set concerns the molecule itself. The experiment in a line: cryo-EM structure; purified virions, ~1 mg/mL, in 30 mM HEPES pH 7.4, 100 mM NaCl; nothing, CaCl2 or 10 mM GCDCA added (V339I), nothing added (D348E); icosahedral reconstruction of the capsid.

B1: Murine norovirus MNV-1 capsid protein VP1, V339I escape mutant (in purified virions) (natural protein, murine norovirus (MNV-1, genotype GV.1), UniProt Q80J94 1-541, looked up)
chain: MRMSDGAAPKANGSEASGQDLVPAAVEQAVPIQPVAGAALAAPAAGQINQIDPWIFQNFVQCPLGEFSISPRNTPGEILFDLALGPGLNPYLAHLSAMYTGWVGNMEVQLVLAGNAFTAGKVVVALVPPYFPKGSLTTAQITCFPHVMCDVRTLEPIQLPLLDVRRVLWHATQDQEESMRLVCMLYTPLRTNSPGDESFVVSGRLLSKPAADFNFVYLTPPIERTIYRMVDLPVIQPRLCTHARWPAPVYGLLVDPSLPSNPQWQNGRVHVDGTLLGTTPISGSWVSCFAAEAAYKFQSGTGEVATFTLIEQDGSAYVPGDRAAPLGYPDFSGQLEIEIQTETTKTGDKLKVTTFEMILGPTTNADQAPYQGRVFASVTAAASLDLVDGRVRAVPRSIYGFQDTIPEYNDGLLVPLAPPIGPFLPGEVLLRFRTYMRQIDTADAAAEAIDCALPQEFVSWFASNAFTVQSEALLLRYRNTLTGQLLFECKLYNEGYIALSYSGSGPLTFPTDGIFEVVSWVPRLYQLASVGSLATGRMLKQ
notes: Capsid protein VP1 (~58 kDa; N-terminal, shell and protruding domains) of murine norovirus MNV-1, as it stands in the purified virion, with the escape mutation V339I on the C'D' loop; also called V339I mutant virus; apo V339I; source: BV-2 cells infected with the MNV-1 mutant; virions purified (PEG precipitation, ultracentrifugation, sucrose gradient); copies: 180
As to B1, the binding result is on record as “binds”.

B2: Murine norovirus MNV-1 capsid protein VP1, D348E escape mutant (in purified virions) (natural protein, murine norovirus (MNV-1, genotype GV.1), UniProt Q80J94 1-541, looked up)
chain: B1 chain with I339V, D348E
notes: Capsid protein VP1 (~58 kDa; N-terminal, shell and protruding domains) of murine norovirus MNV-1, as it stands in the purified virion, with the escape mutation D348E on the C'D' loop; also called D348E virus; apo D348E; source: BV-2 cells infected with the MNV-1 mutant; virions purified (PEG precipitation, ultracentrifugation, sucrose gradient); copies: 180
B2: the binding result is “binds”.
